Test results taken from FireProtDB (doi:10.1002/cbic.201402128).

B1: Haloalkane dehalogenase, D4Z2G1 (parent)
chain: MSLGAKPFGEKKFIEIKGRRMAYIDEGTGDPILFQHGNPTSSYLWRNIMPHCAGLGRLIACDLIGMGDSDKLDPSGPERYAYAEHRDYLDALWEALDLGDRVVLVVHDWGSALGFDWARRHRERVQGIAYMEAIAMPIEWADFPEQDRDLFQAFRSQAGEELVLQDNVFVEQVLPGLILRPLSEAEMAAYREPFLAAGEARRPTLSWPRQIPIAGTPADVVAIARDYAGWLSESPIPKLFINAEPGALTTGRMRDFCRTWPNQTEITVAGAHFIQEDSPDEIGAAIAAFVRRLRPA

Variants of: B1
Conditions: Sphingobium indicum (strain DSM 16413 / CCM 7287 / MTCC 6362 / UT26 / NBRC 101211 / UT26S); pH 7.5; Thermal; fluorescence; Na-Hepes 50 mM; reversible: no; structure 1MJ5; whole UniProt chain shown

Variant | Tm | change of melting temperature, mutant - wild type (higher = more stable)
MSLGAKPFGEKKFIEIKGRRMAYIDEGTGDPILFQHGNPTSSYLWRNIMPHCAGLGRLIACDLIGMGDSDKLDPSGPERYAYAEHRDYLDALWEALDLGDRVVLVVHDWGSALGFDWARRHRERVQGIAYMEAIAMPIEWADFPEQDRDLFQAFRSQAGEELVLQDNVFVEQVLPGLILRPLSEAEMAAYREPFLAAGEARRPTLSWPRQIPIAGTPAQVVAIARDYAGWLSESPIPKLFINAEPGALTTGRMRDFCRTWPNQTEITVAGAHFIQEDSPDEIGAAIAAFVRRLRPA [D219Q] | 50 °C | -1 °C
MSLGAKPFGEKKFIEIKGRRMAYIDEGTGDPILFQHGNPTSSYLWRNIMPHCAGLGRLIACDLIGMGDSDKLDPSGPERYAYAEHRDYLDALWEALDLGDRVVLVVHDWGSALGFDWARRHRERVQGIAYMEAIAMPIEWADFPEQDRDLFQAFRSQAGEELVLQDNVFVEQVLPGLILRPLSEAEMAAYREPFLAAGEARRPTLSWPRQIPIAGTPADVVAIARDYARWLSESPIPKLFINAEPGALTTGRMRDFCRTWPNQTEITVAGAHFIQEDSPDEIGAAIAAFVRRLRPA [G229R] | 51.5 °C | 0.5 °C
MSLGAKPFGEKKFIEIKGRRMAYIDEGTGDPILFQHGNPTSSYLWRNIMPHCAGLGRLIACDLIGMGDSDKLDPSGPERYAYAEHRDYLDALWEALDLGDRVVLVVHDWGSALGFDWARRHRERVQGIAYMEAIAMPIEWADFPEQDRDLFQAFRSQAGEELVLQDNVFVEQVLPGLILRPLSEAEMAAYREPFLAAGEARRPTLSWPRQIPIAGTPADVVAIARDYAEWLSESPIPKLFINAEPGALTTGRMRDFCRTWPNQTEITVAGAHFIQEDSPDEIGAAIAAFVRRLRPA [G229E] | 51.5 °C | 0.5 °C
MSLGAKPFGEKKFIEIKGRRMAYIDEGTGDPILFQHGNPTSSYLWRNIMPHCAGLGRLIACDLIGMGDSDKLDPSGPERYAYAEHRDYLDALWEALDLGDRVVLVVHDWGSALGFDWARRHRERVQGIAYMEAIAMPIEWADFPEQDRDLFQAFRSQAGEELVLQDNVFVEQVLPGLILRPLSEAEMAAYREPFLAAGEARRPTLSWPRQIPIAGTPADVVAIARDYASWLSESPIPKLFINAEPGALTTGRMRDFCRTWPNQTEITVAGAHFIQEDSPDEIGAAIAAFVRRLRPA [G229S] | 52 °C | 1 °C
MSLGAKPFGEKKFIEIKGRRMAYIDEGTGDPILFQHGNPTSSYLWRNIMPHCAGLGRLIACDLIGMGDSDKLDPSGPERYAYAEHRDYLDALWEALDLGDRVVLVVHDWGSALGFDWARRHRERVQGIAYMEAIAMPIEWADFPEQDRDLFQAFRSQAGEELVLQDNVFVEQVLPGLILRPLSEAEMAAYREPFLAAGEARRPTLSWPRQIPIAGTPADVVAIARDYATWLSESPIPKLFINAEPGALTTGRMRDFCRTWPNQTEITVAGAHFIQEDSPDEIGAAIAAFVRRLRPA [G229T] | 51.5 °C | 0.5 °C
MSLGAKPFGEKKFIEIKGRRMAYIDEGTGDPILFQHGNPTSSYLWRNIMPHCAGLGRLIACDLIGMGDSDKLDPSGPERYAYAEHRDYLDALWEALDLGDRVVLVVHDWGSALGFDWARRHRERVQGIAYMEAIAMPIEWADFPEQDRDLFQAFRSQAGEELVLQDNVFVEQVLPGLILRPLSEAEMAAYREPFLAAGEARRPTLSWPRQIPIAGTPADVVAIARDYANWLSESPIPKLFINAEPGALTTGRMRDFCRTWPNQTEITVAGAHFIQEDSPDEIGAAIAAFVRRLRPA [G229N] | 51.5 °C | 0.5 °C
MSLGAKPFGEKKFIEIKGRRMAYIDEGTGDPILFQHGNPTSSYLWRNIMPHCAGLGRLIACDLIGMGDSDKLDPSGPERYAYAEHRDYLDALWEALDLGDRVVLVVHDWGSALGFDWARRHRERVQGIAYMEAIAMPIEWADFPEQDRDLFQAFRSQAGEELVLQDNVFVEQVLPGLILRPLSEAEMAAYREPFLAAGEARRPTLSWPRQIPIAGTPADVVAIARDYADWLSESPIPKLFINAEPGALTTGRMRDFCRTWPNQTEITVAGAHFIQEDSPDEIGAAIAAFVRRLRPA [G229D] | 51.5 °C | 0.5 °C
MSLGAKPFGEKKFIEIKGRRMAYIDEGTGDPILFQHGNPTSSYLWRNIMPHCAGLGRLIACDLIGMGDSDKLDPSGPERYAYAEHRDYLDALWEALDLGDRVVLVVHDWGSALGFDWARRHRERVQGIAYMEAIAMPIEWADFPEQDRDLFQAFRSQAGEELVLQDNVFVEQVLPGLILRPLSEAEMAAYREPFLAAGEARRPTLSWPRQIPIAGTPADVVAIARDYAQWLSESPIPKLFINAEPGALTTGRMRDFCRTWPNQTEITVAGAHFIQEDSPDEIGAAIAAFVRRLRPA [G229Q] | 54 °C | 3 °C
MSLGAKPFGEKKFIEIKGRRMAYIDEGTGDPILFQHGNPTSSYLWRNIMPHCAGLGRLIACDLIGMGDSDKLDPSGPERYAYAEHRDYLDALWEALDLGDRVVLVVHDWGSALGFDWARRHRERVQGIAYMEAIAMPIEWADFPEQDRDLFQAFRSQAGEELVLQDNVFVEQVLPGLILRPLSEAEMAAYREPFLAAGEARRPTLSWPRQIPIAGTPADVVAIARDYAAWLSESPIPKLFINAEPGALTTGRMRDFCRTWPNQTEITVAGAHFIQEDSPDEIGAAIAAFVRRLRPA [G229A] | 51.5 °C | 0.5 °C
MSLGAKPFGEKKFIEIKGRRMAYIDEGTGDPILFQHGNPTSSYLWRNIMPHCAGLGRLIACDLIGMGDSDKLDPSGPERYAYAEHRDYLDALWEALDLGDRVVLVVHDWGSALGFDWARRHRERVQGIAYMEAIAMPIEWADFPEQDRDLFQAFRSQAGEELVLQDNVFVEQVLPGLILRPLSEAEMAAYREPFLAPGEARRPTLSWPRQIPIAGTPADVVAIARDYAGWLSESPIPKLFINAEPGALTTGRMRDFCRTWPNQTEITVAGAHFIQEDSPDEIGAAIAAFVRRLRPA [A197P] | 52.5 °C | 1.5 °C
